Laboratory results: paper PMC11857287

Substrate: Nc1ncnc2c1ncn2[C@@H]1O[C@H](COP(=O)(O)OP(=O)(O)OP(=O)(O)OP(=O)(O)OC[C@H]2O[C@@H](n3cnc4c(N)ncnc43)[C@H](O)[C@@H]2O)[C@@H](O)[C@H]1O
Experiment: fluorescent ADP assay, Lineweaver-Burk
Type: biochemical, Streptococcus pyogenes
Conditions: Mg2+-dependent, heading states optimal conditions (optimum pH 7.0, 45 °C), 0.1 mg/mL enzyme
Excerpt: fluorescent ADP assay, Lineweaver-Burk on Sp-yqeK

B1: Sp-yqeK (Streptococcus pyogenes) (protein)
chain: MTYEDYLPYSRTELLAKIAEQMSPKRFKHVLGVEKAALSLAECYGCNPDKAGLAALLHDYAKECPDQVFLDLIDKYQLSPELAKWNNNVWHGMVGIYKIQEDLGLKDKDILRAIEIHTVGAAEMTLLDKVLYVADYIEEGRIFPLVDDARKIAKLDLNQAVAYETVNTVAYLASKAQPIFPQTLDTYNAFCSYLKEY
notes: pET28b (Nde I/Xho I), E. coli BL21(DE3), Ni-NTA purified; about 23 kDa; dimer in the asymmetric unit
**Q.** B1 was tested. Which Km did it give?
**A.** 216.4 ± 21.65 µM
